From PMC9317006, “A Fiber-Based SPR Aptasensor for the In Vitro Detection of Inflammation Biomarkers”

T1: C-reactive protein (CRP) (human, UniProt P02741 19-224)
T1 sequence: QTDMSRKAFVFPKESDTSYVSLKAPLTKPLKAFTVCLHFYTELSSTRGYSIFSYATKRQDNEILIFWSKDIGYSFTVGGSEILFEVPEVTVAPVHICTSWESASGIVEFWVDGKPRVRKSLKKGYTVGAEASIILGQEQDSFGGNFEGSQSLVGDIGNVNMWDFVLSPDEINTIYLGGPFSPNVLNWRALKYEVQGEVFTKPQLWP


What was measured:
[1] = test system: fibrinogen; assay: fiber-based SPR; conditions: 100 nM protein; 3' thiol; Detection buffer: 25 mM Tris base, 192 mM glycine, 0.05% Tween 20, 0.1% BSA, 2 mM CaCl2, 100 mM NaCl, pH 8.0; binding temperature not stated (RI calibration at …)
[2] = test system: hemoglobin; assay: fiber-based SPR; conditions: 100 nM protein; 3' thiol; Detection buffer: 25 mM Tris base, 192 mM glycine, 0.05% Tween 20, 0.1% BSA, 2 mM CaCl2, 100 mM NaCl, pH 8.0; binding temperature not stated (RI calibration at …)
[3] = target: T1, C-reactive protein (CRP); assay: fiber-based SPR; LOD 1.7 nM (not a Kd); aptamer loaded at 100 nM; Detection buffer: 25 mM Tris base, 192 mM glycine, 0.05% Tween 20, 0.1% BSA, 2 mM CaCl2, 100 mM NaCl, pH 8.0; binding temperature not stated (RI calibration at); conditions: protein: recombinant; chain copies: 5
[4] = target: cardiac troponin I (cTn-I) (human, UniProt P19429 1-210); assay: fiber-based SPR; LOD 2.5 nM (not a Kd); aptamer loaded at 200 nM; Detection buffer: 25 mM Tris base, 192 mM glycine, 0.05% Tween 20, 0.1% BSA, 2 mM CaCl2, 100 mM NaCl, pH 8.0; binding temperature not stated (RI calibration at); conditions: protein: recombinant
Sequence of cardiac troponin I (cTn-I) (P19429 whole entry): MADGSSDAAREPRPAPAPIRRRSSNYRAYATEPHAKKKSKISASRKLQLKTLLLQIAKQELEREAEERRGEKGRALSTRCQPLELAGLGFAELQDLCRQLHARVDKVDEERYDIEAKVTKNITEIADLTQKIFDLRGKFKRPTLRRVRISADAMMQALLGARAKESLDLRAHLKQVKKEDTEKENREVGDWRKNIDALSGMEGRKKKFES

| Molecule | binding signal (% of specific response) [1] | binding signal (% of specific response) [2] | binding result [3] | binding result [4] |
| --- | --- | --- | --- | --- |
| CGAAGGGGATTCGAGGGGTGATTGCGTGCTCCATTTGGTGTTTTT [cTn-I aptamer] | < 20 | < 20 |  |  |
| GGCAGGAAGACAAACACGATGGGGGGGTATGATTTGATGTGGTTGTGCATGATCGTGGTCTGTGGTGCTGTTTTT [CRP aptamer] | < 20 | < 20 |  |  |
| CRP aptamer (ssDNA, 3' thiol) DNA: GGCAGGAAGACAAACACGATGGGGGGGTATGATTTGATGTGGTTGTGCATGATCGTGGTCTGTGGTGCTGTTTTT |  |  | binds |  |
| CGAAGGGGATTCGAGGGGTGATTGCGTGCTCCATTTGGTGTTTTT (ssDNA, 3' thiol) [cTn-I aptamer] |  |  |  | binds |
